According to patent publication US8835609B2, “Antigen binding sites to non-functional oligomeric P2X7 receptors and methods of use thereof” (Biosceptre International Limited, priority 2009, dated 2014):

What was measured:
[1] = test system: Colo205 cells; test: ApoOne apoptosis assay, caspase 3/7 activity; assay type: cell-based, human; details: for Caspase 3/7 activation: COLO205, 3 day time course, antibodies up to 40 ug/mL
Method: FIG. 11. Mechanism of Cell Death Induced by 2F6 with Caspase 3/7 Activation Associated with Reactivation of Apoptosis. […] In contrast, the absence of drug or antibody has no effect (cells only column).
A mode of action by which the 2F6 is able to inhibit cell growth was determined by an ApoOne apoptosis assay in which caspase 3/7 activity was measured in combination with cell growth through the Cell Titer Blue assay. Colo205 cells were grown in a 3-day growth assay with increasing 2F6 from 0-40 ug/mL. The gemcitabine positive control was added to establish the degree of apoptosis that may be elicited by the presence of bound antibody.

[2] = test system: Lewis Lung (LL) tumour; test: Lewis Lung (LL) syngeneic xenograft model, lung metastases; assay type: in vivo, mouse; details: 5 mL/kg daily; Day 11
Method: Dosing occurred every 3 days at antibody concentrations of 1 or 10 mg/kg i.v. or with PBS for treatment control or Sorafenib at 5 mL/kg daily as a positive control in the Lewis Lung model. Mice were randomised into equal groups of 10 mice, based on tumour volume on Day 0 of the studies.
Mice were anaesthetised for blood collection and euthanised by exsanguination via terminal cardiac bleed 48 hours post-final dose, on Days 11 or 14 post-initial treatment.
The lungs were excised from all mice. Lung surface metastases were counted and were categorised according to size: small (<1 mm), medium (≧1 mm and <3 mm) and large (≧3 mm). Excised lungs were preserved in 10% neutral buffered formalin.
The syngeneic Lewis Lung model was used with additional control groups. Besides the PBS control group of ten mice (Group 1), a positive control group using daily Sorafenib at 5 mL/kg was included (Group 5) along with antibody treatment groups consisting of sheep affinity purified E200-300 polyclonal antibody at 10 mg/kg (Group 2), 2F6-hIgG1 at 1 mg/kg (Group 3) and 2F6-hIgG1 at 10 mg/kg (Group 4).

[3] = target: T1, non-functional receptors on live COLO-205 cells (Homo sapiens, UniProt Q99572); test: Flow cytometry binding to live COLO205 cells; assay type: cell-based; details: FLAG-tagged Fabs; anti-FLAG secondary
T1 construct: endogenous in cells; host or cells: COLO-205 (human colorectal tumour cells)
T1 sequence (Q99572 1-595): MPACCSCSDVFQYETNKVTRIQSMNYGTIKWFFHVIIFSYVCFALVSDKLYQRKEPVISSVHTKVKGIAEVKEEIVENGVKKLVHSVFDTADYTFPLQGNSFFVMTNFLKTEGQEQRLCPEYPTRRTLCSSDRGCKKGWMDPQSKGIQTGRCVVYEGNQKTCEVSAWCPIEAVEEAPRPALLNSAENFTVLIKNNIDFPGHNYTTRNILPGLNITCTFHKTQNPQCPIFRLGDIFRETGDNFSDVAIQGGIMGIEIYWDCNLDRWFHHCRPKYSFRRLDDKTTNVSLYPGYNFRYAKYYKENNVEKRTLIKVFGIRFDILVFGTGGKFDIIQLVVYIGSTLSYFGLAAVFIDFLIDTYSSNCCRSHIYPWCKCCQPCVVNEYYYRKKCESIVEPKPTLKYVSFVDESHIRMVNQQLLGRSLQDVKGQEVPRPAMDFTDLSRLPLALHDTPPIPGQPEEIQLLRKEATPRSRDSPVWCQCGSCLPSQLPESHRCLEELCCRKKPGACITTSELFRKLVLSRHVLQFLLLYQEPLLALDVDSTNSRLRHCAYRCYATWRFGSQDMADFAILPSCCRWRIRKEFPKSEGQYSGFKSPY
From the text: (§1) FIGS. 19(a)-(b). (a) Flow cytometry results for binding recombinant Fabs to live colorectal COLO205 tumour cells. A Sigma anti-FLAG secondary antibody (#F4049) was used to detect the binding of the primary antibodies. WT 2F6 Fab bound weakly over the same concentration range. The EC50 for the four lead Fabs is very similar to the values obtained from ELISA measurements. (b) Very similar improved binding results were obtained for prostate PC3 cells.
(§2) Flow cytometry was used to measure the enhanced binding of selected affinity matured recombinant Fabs in human COLO-205 and PC3 cell lines over that of the starting 2F6 sequence. Recombinant FLAG-tagged Fabs were bound to cells and detected using a Sigma F4049 murine monoclonal anti-FLAG antibody conjugated to FITC used at a concentration of 1:75. Affinity purified sheep 200-300 antibody was examined for direct comparison with the 2F6 mIgG2a WT by Flow to PC3 cells.

[4] = target: T2, E200-300 epitope of P2X7 receptor (Homo sapiens, UniProt Q99572, INS205RNILPGGA); test: ELISA against immobilised antigen E200-300; assay type: binding
T2 construct: added C-terminal Cys (attachment point for BSA, DT, ovalbumin or KLH via MCS); purchased Chiron Mimotopes; host or cells: solid phase peptide synthesis
T2 sequence (Q99572 with tags, fused parts or gaps isoform Q99572-5 INS205RNILPGGA): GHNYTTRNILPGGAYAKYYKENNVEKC
Method: FIG. 18. ELISA of IgM, IgG2a and Fab Leads. Lead Affinity Matured 2F6-Derived Fab ELISA (scale 0.01-12.5 ug/mL for IgM and IgG2a; 0.1-100 ug/mL for Fabs).
The 2F6 VH and VL gene fragments were amplified and assembled into an E. coli expression/secretion vector. Both the 2F6 scFv and Fab were transformed into E. coli and expression of the gene construct induced. The E. coli cultures were harvested 5 hours post induction and the scFv and Fab analysed for binding using ELISA and Biacore against immobilised antigen E200-300.
Mutagenesis of the 2F6 scFv was introduced through a combination of error prone PCR, NNK randomisation and sequence length variation of HCDR3. A mutated library in the phagemid vector was of order 1×10^7. Screening of the library for higher affinity mutants employed a combination of phage display with filter expression assays using biotinylated E200-300 antigen. A selection of higher affinity scFv lead phage clones underwent small scale expression of soluble antibody fragments with affinities measured using ELISA and Biacore.

[5] = test system: prostate PC3, colon COLO205, breast MDAMB231, melanoma A375 and breast MCF7; test: Cell Titer Blue assay of cell growth, range of cancer cell lines; assay type: cell-based; details: for cell growth: 3-day or 5-day growth, antibody 0-40 ug/mL
Method: (§3) FIGS. 9(a)-(d). (a) In Vitro Cell Inhibition Assays. […] Growth over 5 days is inhibited to a greater extent than over 3 days. The growth data is plotted relative to the control growth curves obtained using the control IgM antibody.
(§4) Cells were seeded at appropriate density and grown over a 3-day or 5-day period to reach a level close to confluence at the end of the test period in the presence of control antibodies and in the presence of test antibodies, either IgM or IgG2a types of 2F6 over the concentration range 0-40 ug/mL. Testing of cell line growth was conducted with seed densities ranging from 100-2000 cells/well.

[6] = target: T3, non-functional receptors on live PC3 cells (Homo sapiens, UniProt Q99572); test: Flow cytometry binding to PC3 cells; assay type: cell-based
T3 construct: endogenous in cells; host or cells: PC3 (human prostate tumour cells)
T3 sequence (Q99572 1-595): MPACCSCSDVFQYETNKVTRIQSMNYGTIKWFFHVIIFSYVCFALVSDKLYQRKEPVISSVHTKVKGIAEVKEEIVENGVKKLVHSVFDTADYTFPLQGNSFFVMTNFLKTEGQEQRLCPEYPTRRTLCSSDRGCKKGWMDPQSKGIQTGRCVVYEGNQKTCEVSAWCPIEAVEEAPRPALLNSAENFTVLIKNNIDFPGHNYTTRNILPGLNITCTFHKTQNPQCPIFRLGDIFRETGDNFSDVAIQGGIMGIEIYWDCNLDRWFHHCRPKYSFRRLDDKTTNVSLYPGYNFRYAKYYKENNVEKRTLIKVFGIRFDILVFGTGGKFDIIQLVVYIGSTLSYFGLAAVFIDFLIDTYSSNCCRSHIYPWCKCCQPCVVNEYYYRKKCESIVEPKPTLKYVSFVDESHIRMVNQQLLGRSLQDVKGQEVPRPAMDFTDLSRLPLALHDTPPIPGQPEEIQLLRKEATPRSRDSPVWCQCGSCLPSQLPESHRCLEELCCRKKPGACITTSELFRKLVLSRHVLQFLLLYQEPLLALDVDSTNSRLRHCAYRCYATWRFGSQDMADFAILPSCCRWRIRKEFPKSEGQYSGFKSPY
From the text: as §1
FIG. 20. A comparison was made with various preparations of recombinant 2F6 IgG2a to determine the relative binding strength of the WT formatted antibody to PC3 cells compared with the affinity matured Fabs. Rockland IgG2a #010-001-332 was used for control to determine background (diamond).
as §2

[7] = test system: COLO205; test: Cell Titer Blue cell growth assay, COLO205; assay type: cell-based, human
Method: as §3, §4

[8] = test system: MCF-7 cells; test: Direct cell killing, confocal microscope images; assay type: cell-based; details: 20 ug/mL; 24 hours exposure
Method: FIG. 12. Direct Cell Killing by 2F6 IgM. Confocal microscope images of MCF-7 cells in presence of control IgM antibody (a) and 2F6 IgM (b) for 24 h.

[9] = test system: MCF-7 breast cancer cell line; test: Cell Titer Blue cell growth inhibition with peptide blocking, MCF-7; assay type: cell-based; details: for growth inhibition after pre-incubation of antibody with soluble peptide epitope: 3 days
Method: FIG. 10. Blocking Reaction in Cell Killing Assay. The Cell Titer Blue cell growth inhibition assay is used over three day cell growth with MCF-7 breast cancer cell line. Note the viable control cells in the right column have no antibody or peptide. The left hand column is the signal derived from the cells incubated with 10 ug/mL 2F6 IgM antibody containing 500 ug/mL peptide epitope (E200-300 epitope described as 200/300 in Figure), sufficient to block the cell growth inhibition evidenced by the data in the three central columns that show growth inhibition is not affected by the presence of 50 ug/mL, 5 ug/mL or 0 ug/mL peptide respectively.
as §4

Molecule: Nc1ccn([C@@H]2O[C@H](CO)[C@@H](O)C2(F)F)c(=O)n1 [Gemcitibine, gemcitabine, reference compound]
- Caspase 3/7 activation [1]: activate caspases

Molecule: CNC(=O)c1cc(Oc2ccc(NC(=O)Nc3ccc(Cl)c(C(F)(F)F)c3)cc2)ccn1 [Sorafenib, reference compound]
- Mean Lung Surface Mets [2]: 0.1
- inhibition of lung metastases relative to PBS control [2]: 96%

B1: WT Fab: recombinant Fab of wildtype 2F6 expressed in E. coli (antibody, V domains shown)
VH: DVKLVESGGGLVKLGGSLKLSCAASGFTFSSYYMSWVRQTPEKRLELVAAINSNGGSTYYPDTVKGRFTISRDNAKNTLYLQMSSLKSEDTAFYYCTRHYSSRFFDVWGAGTTVTVSS
VL: MADIVMTQSQKFMSTSVGDRVSVTCKASQNVGTNVAWYQQKPGQSPKALIYSASFRYSGVPDRFTGSGSGTDFTLTISNVQSEDLAEFFCQQYNSYPFTFGSGTRLEIK
- binding to live COLO205 cells [3]: bound weakly
- binding compared with selected affinity matured leads ([4]; ELISA, Fab format): much lower (2-logs) binding
- EC50 (ELISA) ([4]; scale 0.01-12.5 ug/mL for IgM and IgG2a, 0.1-100 ug/mL for Fabs): very low EC50

B2: 2F6 IgG2a: 2F6 VH and VL chains spliced into a mouse IgG2a sequence, expressed in HEK293 cells (antibody, V domains shown)
VH: DVKLVESGGGLVKLGGSLKLSCAASGFTFSSYYMSWVRQTPEKRLELVAAINSNGGSTYYPDTVKGRFTISRDNAKNTLYLQMSSLKSEDTAFYYCTRHYSSRFFDVWGAGTTVTVSS
VL: MADIVMTQSQKFMSTSVGDRVSVTCKASQNVGTNVAWYQQKPGQSPKALIYSASFRYSGVPDRFTGSGSGTDFTLTISNVQSEDLAEFFCQQYNSYPFTFGSGTRLEIK
- cell growth [5]: inhibited cell growth
- cell growth inhibition compared with the IgM form ([5]; over 3 days): weaker cell inhibition
- binding to PC3 cells [6]: comparable to the binding elicited by the lead Fabs

B3: 2F6 IgM: hybridoma clone 2F6, mouse IgM with Kappa light chains, raised to P2X7 E200-300; CDR3 HYSSRFFDV (antibody, V domains shown)
VH: DVKLVESGGGLVKLGGSLKLSCAASGFTFSSYYMSWVRQTPEKRLELVAAINSNGGSTYYPDTVKGRFTISRDNAKNTLYLQMSSLKSEDTAFYYCTRHYSSRFFDVWGAGTTVTVSS
VL: MADIVMTQSQKFMSTSVGDRVSVTCKASQNVGTNVAWYQQKPGQSPKALIYSASFRYSGVPDRFTGSGSGTDFTLTISNVQSEDLAEFFCQQYNSYPFTFGSGTRLEIK
modifications: IgM constant regions
notes: hybridoma clone 2F6, mouse IgM with Kappa light chains, raised to P2X7 E200-300; CDR3 …
- cell growth [5]: inhibited cell growth
- COLO205 growth ([7]; over 3 days, relative to control IgM): significantly inhibited
- COLO205 cells ([7]; over 5 days, even at low dose of 2.5 ug/mL): eliminated
- cell death (confocal images) [8]: many cells are already dead
- growth inhibition after pre-incubation of antibody with soluble peptide epitope ([9]; 10 ug/mL antibody, E200-300 peptide 500 ug/mL): no longer able to affect cell growth
- growth inhibition after pre-incubation of antibody with soluble peptide epitope ([9]; 10 ug/mL antibody, E200-300 peptide 5-50 ug/mL): no effect on the inhibition
- MCF7 cell growth ([9]; 10 ug/mL antibody, over 3 days): greatly inhibits cell growth
- MCF-7 cell growth ([9]; after 5 days of exposure): Total inhibition of cell growth
- Caspase 3/7 activation [1]: steady increase
- antibody concentration sufficient to initiate full caspase 3/7 (apoptosis) activity ([1]; Colo205, 3-day growth assay): 20 to 40 µg/mL
